In one data set the target is T1, SPase (Rhodopirellula baltica, UniProt Q7UIS9).
T1 sequence (Q7UIS9 1-571): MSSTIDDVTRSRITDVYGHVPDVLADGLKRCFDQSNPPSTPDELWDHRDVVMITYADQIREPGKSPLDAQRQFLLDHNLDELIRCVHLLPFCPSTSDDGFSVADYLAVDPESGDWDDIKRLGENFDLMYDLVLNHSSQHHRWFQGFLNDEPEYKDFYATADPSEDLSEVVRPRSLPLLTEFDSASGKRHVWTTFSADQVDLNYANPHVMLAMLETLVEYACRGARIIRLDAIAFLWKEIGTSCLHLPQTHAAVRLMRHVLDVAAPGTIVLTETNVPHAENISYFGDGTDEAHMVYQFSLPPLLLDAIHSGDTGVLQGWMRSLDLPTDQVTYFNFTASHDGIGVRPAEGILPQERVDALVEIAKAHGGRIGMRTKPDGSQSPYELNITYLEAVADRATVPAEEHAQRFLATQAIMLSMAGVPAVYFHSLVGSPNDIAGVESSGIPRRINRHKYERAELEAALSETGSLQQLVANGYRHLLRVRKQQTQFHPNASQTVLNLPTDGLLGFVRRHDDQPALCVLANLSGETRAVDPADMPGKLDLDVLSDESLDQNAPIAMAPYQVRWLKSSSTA
The experiment in a line: turnover to fructose and glucose-1-phosphate. The data set is classed as cell-based. The settings on record: recombinant enzyme.

Data set [1] concerns the molecule itself. The experiment in a line: SEC.
Data set [2] deals with the molecule itself. The experiment in a line: SEC. The source holds these as a separate data set. For orientation: In gel filtration, larger molecules generally elute earlier.

What is called stoichiometry N is a count of units in the complex or per binding partner.

Where two headings read alike, the source gives them in different places.

Take `OC[C@H]1O[C@@](CO)(O[C@H]2O[C@H](CO)[C@@H](O)[C@H](O)[C@H]2O)[C@@H](O)[C@@H]1O` [sucrose]: the “turnover to fructose and glucose-1-phosphate” value at SPase was “it catalyzed the conversion of sucrose to fructose and glucose-1-phosphate”.

B1: mannosylglucosyl-3-phosphoglycerate synthase (MggA) from Rhodopirellula baltica, recombinant (enzyme)
chain: MKISAMKILIVHCHFERGGVTQVVDNHVHCLQGSDEIDEVALVSGPRQSGLQETTRSSASIWRIASLEYDSLRDTSLNVDEQAQNDKQAQHTAREIDERCRQAGWTRQETVVHWHNHSLGKNAASPLVIKHLADFGYSCLLQIHDFAEDQRPQNWAYLKQSHGCEKASELDAILYPHGDRLSYATLTTGDAETLVQFGIHRSRVDVLPNSVRLPTDELPEFEVATHKVQRAFDLPADFRWMLYPVRGIRRKNLGEFLLMCQLAGRPTIGAMTLMPDTPMEKRSYERWQAVAERCVENVVFNAAHHEDIQFVDNLSAASVVVSSSVAEGFGMVFLEPWLASRSVVARNLPGVTGDFINHGMRLEHLYDAVQIPGSHSWLTEANRQFQNAKTDAWKDVRRDVETALSPSASDQSISDANEWIDFARLTPAMQIEVLVRFNTDSGFAKEVRDRNAALCDALVTDARPEIIDYNRNIVAANFGPENQKQQLLNAYRKAISNESIPGTGVQNDQTMLELVENSRPFYPCRVEQLD
For the molecule B1, in “SEC [1]”, the “stoichiometry N” value is 2.

B2: glucosyl-3-phosphoglycerate synthase (GpgS) from Rhodopirellula baltica, recombinant 398-amino acid enzyme (enzyme)
chain: PDFYQHDMITTIHDLRSAKLDNLESMLRESTRNHDIGLVLPVTASDMRAEPFDVIVRELAQADYIASIVVSLGVAPDQSDYDETCAKIAPLGDRAKVLWTDGPEVQGLYNELIESGIDVSVPGKGRSVWTAFGYLLDDPDIETFVLHDCDIVDYDRQLLTRLCLPMVHPGLDFEFCKAYYARVTDRMHGRVVRLLVAPLLRALMQCFPENQFVRFLGNFRYPLSGEFSLTRNLARTNRVASDWGLEVGTLADVYRNTSHKRVCQVDLARLYEHKHQTLAVDQPSSGLIKMALDILTTIYRTLASQGIVFGESTFVTLRASFLRIAQDCIRQYAADARVNSLKYDRHSEEMAIEAFAQCVTQAGEIFAADPSGNPSIPNWTRVRAAFPDFTSRLRETVK
Take B2: the “stoichiometry N” value in “SEC [2]” came to 5.
